Starred links: 1 amine or outer side, 2 acyl side, 3 side chain; linkers in the order of their positions; H or OH if unused. Non-standard residues stand in square brackets, D forms with d. Groups on a side chain read outwards from the residue. No end group written: not given here. *: point of attachment. C18 diacid = O=C(O)CCCCCCCCCCCCCCCCC(=O)*; γGlu = O=C(O)[C@H](CCC(=O)[*:2])N[*:1]; Nle = CCCC[C@H](N)C(=O)O; AEEA = NCCOCCOCC(=O)O; Aib = CC(C)(N)C(=O)O
Molecular target: T1, human GIP receptor (human, UniProt P48546 22-466)
T1 sequence (looked up): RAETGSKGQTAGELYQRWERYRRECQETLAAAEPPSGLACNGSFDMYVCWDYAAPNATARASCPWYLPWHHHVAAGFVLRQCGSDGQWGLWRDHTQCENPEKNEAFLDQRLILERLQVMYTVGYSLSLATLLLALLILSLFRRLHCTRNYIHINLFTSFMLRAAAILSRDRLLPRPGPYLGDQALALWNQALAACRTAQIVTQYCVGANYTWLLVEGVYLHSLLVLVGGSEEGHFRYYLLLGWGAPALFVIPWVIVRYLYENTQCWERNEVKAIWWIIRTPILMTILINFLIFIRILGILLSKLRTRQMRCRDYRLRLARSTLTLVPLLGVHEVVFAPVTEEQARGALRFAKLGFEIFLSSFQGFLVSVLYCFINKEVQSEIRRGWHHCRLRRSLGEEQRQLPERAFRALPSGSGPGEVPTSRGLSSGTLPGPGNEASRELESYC
Experiment: cell-based or functional assay

Binder | cAMP antagonism % inhib (CisBio assay) [%] | cAMP antagonism nM (IC50, CisBio assay) [nM] | cAMP antagonism pIC50 (CisBio assay)
EGTFISEYSI[Aib]LEKIK([AEEA-AEEA-γGlu-C18 diacid])QQEFVEWLLAQKPSSGAPPPS-OH (N-terminus assumed; SMILES CC[C@H](C)[C@H](NC(=O)[C@H](CCCCN)NC(=O)[C@H](CCC(=O)O)NC(=O)[C@H](CC(C)C)NC(=O)C(C)(C)NC(=O)[C@@H](NC(=O)[C@H](CO)NC(=O)[C@H](Cc1ccc(O)cc1)NC(=O)[C@H](CCC(=O)O)NC(=O)[C@H](CO)NC(=O)[C@@H](NC(=O)[C@H](Cc1ccccc1)NC(=O)[C@@H](NC(=O)CNC(=O)[C@@H](N)CCC(=O)O)[C@@H](C)O)[C@@H](C)CC)[C@@H](C)CC)C(=O)N[C@@H](CCCCNC(=O)COCCOCCNC(=O)COCCOCCNC(=O)CC[C@H](NC(=O)CCCCCCCCCCCCCCCCC(=O)O)C(=O)O)C(=O)N[C@@H](CCC(N)=O)C(=O)N[C@@H](CCC(N)=O)C(=O)N[C@@H](CCC(=O)O)C(=O)N[C@@H](Cc1ccccc1)C(=O)N[C@H](C(=O)N[C@@H](CCC(=O)O)C(=O)N[C@@H](Cc1c[nH]c2ccccc12)C(=O)N[C@@H](CC(C)C)C(=O)N[C@@H](CC(C)C)C(=O)N[C@@H](C)C(=O)N[C@@H](CCC(N)=O)C(=O)N[C@@H](CCCCN)C(=O)N1CCC[C@H]1C(=O)N[C@@H](CO)C(=O)N[C@@H](CO)C(=O)NCC(=O)N[C@@H](C)C(=O)N1CCC[C@H]1C(=O)N1CCC[C@H]1C(=O)N1CCC[C@H]1C(=O)N[C@@H](CO)C(=O)O)C(C)C) [AT695] | 98 | 0.794 | 9.1
EGTFISEYSIA[Nle]EKIK([AEEA-AEEA-γGlu-C18 diacid])QQEFVEWLLAQKPSSGAPPPS-OH (N-terminus assumed; SMILES CCCC[C@H](NC(=O)[C@H](C)NC(=O)[C@@H](NC(=O)[C@H](CO)NC(=O)[C@H](Cc1ccc(O)cc1)NC(=O)[C@H](CCC(=O)O)NC(=O)[C@H](CO)NC(=O)[C@@H](NC(=O)[C@H](Cc1ccccc1)NC(=O)[C@@H](NC(=O)CNC(=O)[C@@H](N)CCC(=O)O)[C@@H](C)O)[C@@H](C)CC)[C@@H](C)CC)C(=O)N[C@@H](CCC(=O)O)C(=O)N[C@@H](CCCCN)C(=O)N[C@H](C(=O)N[C@@H](CCCCNC(=O)COCCOCCNC(=O)COCCOCCNC(=O)CC[C@H](NC(=O)CCCCCCCCCCCCCCCCC(=O)O)C(=O)O)C(=O)N[C@@H](CCC(N)=O)C(=O)N[C@@H](CCC(N)=O)C(=O)N[C@@H](CCC(=O)O)C(=O)N[C@@H](Cc1ccccc1)C(=O)N[C@H](C(=O)N[C@@H](CCC(=O)O)C(=O)N[C@@H](Cc1c[nH]c2ccccc12)C(=O)N[C@@H](CC(C)C)C(=O)N[C@@H](CC(C)C)C(=O)N[C@@H](C)C(=O)N[C@@H](CCC(N)=O)C(=O)N[C@@H](CCCCN)C(=O)N1CCC[C@H]1C(=O)N[C@@H](CO)C(=O)N[C@@H](CO)C(=O)NCC(=O)N[C@@H](C)C(=O)N1CCC[C@H]1C(=O)N1CCC[C@H]1C(=O)N1CCC[C@H]1C(=O)N[C@@H](CO)C(=O)O)C(C)C)[C@@H](C)CC) [AT694] | 88 | 1.47 | 8.8
